B1: SLCO1A2, P46721 (peptide)
chain: LKDDELKTKL
B2: NECTIN1, Q15223 (peptide)
chain: SFISKKEWYV

Each binder was assayed against LNX1_1, Q8TBB1 (assay: holdup assay). Details: plain residues with an end cap or a label only (N-terminal biotin on a linker: ado-ado).
Set-up: key: below the threshold = too weak to quantify, mostly under pKd 3.1 to 4

Chain of LNX1_1, Q8TBB1 (Q8TBB1 261-371): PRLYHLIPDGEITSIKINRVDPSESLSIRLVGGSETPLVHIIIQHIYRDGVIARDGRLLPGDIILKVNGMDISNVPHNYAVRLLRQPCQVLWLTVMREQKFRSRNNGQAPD

Binder	pKd
B1	3.72
B2	below the threshold

These binders were tested against T1, TIAM2, Q8IVF5 (assay: holdup assay). Details: plain residues with an end cap or a label only (N-terminal biotin on a linker: ado-ado).
T1 sequence (Q8IVF5 885-986, limits assumed, looked up): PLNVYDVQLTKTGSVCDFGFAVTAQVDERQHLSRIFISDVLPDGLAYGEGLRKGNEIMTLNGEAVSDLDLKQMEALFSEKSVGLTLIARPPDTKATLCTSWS
Set-up: key: below the threshold = too weak to quantify, mostly under pKd 3.1 to 4

Binder	pKd
B1	below the threshold
B2	5.09

The binders below were run against IL16_4, Q14005 (assay: holdup assay). Details: plain residues with an end cap or a label only (N-terminal biotin on a linker: ado-ado).
Chain of IL16_4, Q14005 (Q14005 1229-1329): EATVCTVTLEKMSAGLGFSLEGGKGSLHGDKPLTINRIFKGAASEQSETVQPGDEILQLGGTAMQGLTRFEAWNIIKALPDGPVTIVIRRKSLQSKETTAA
Set-up: key: below the threshold = too weak to quantify, mostly under pKd 3.1 to 4

Binder	pKd
B1	3.61
B2	below the threshold

The binders below were run against NHERF4_2, Q86UT5 (assay: holdup assay). Details: plain residues with an end cap or a label only (N-terminal biotin on a linker: ado-ado).
Chain of NHERF4_2, Q86UT5 (Q86UT5 220-308): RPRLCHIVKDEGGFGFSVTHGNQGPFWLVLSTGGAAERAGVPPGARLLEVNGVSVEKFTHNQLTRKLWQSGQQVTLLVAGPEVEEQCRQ
Set-up: key: below the threshold = too weak to quantify, mostly under pKd 3.1 to 4

Binder	pKd
B1	below the threshold
B2	below the threshold

Each binder was assayed against FRMPD2_1, Q68DX3 (assay: holdup assay). Details: plain residues with an end cap or a label only (N-terminal biotin on a linker: ado-ado).
Chain of FRMPD2_1, Q68DX3 (Q68DX3 770-861): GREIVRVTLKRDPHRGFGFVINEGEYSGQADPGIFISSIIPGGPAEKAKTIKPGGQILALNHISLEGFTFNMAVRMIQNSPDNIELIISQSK
Set-up: key: below the threshold = too weak to quantify, mostly under pKd 3.1 to 4

Binder	pKd
B1	below the threshold
B2	4.22

Each binder was assayed against Inadl_1, Q8NI35 (assay: holdup assay). Details: plain residues with an end cap or a label only (N-terminal biotin on a linker: ado-ado).
Chain of Inadl_1, Q8NI35 (Q8NI35 113-229): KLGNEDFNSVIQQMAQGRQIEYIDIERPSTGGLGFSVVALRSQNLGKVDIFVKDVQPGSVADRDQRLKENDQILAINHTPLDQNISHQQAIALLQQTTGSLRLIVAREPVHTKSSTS
Set-up: key: below the threshold = too weak to quantify, mostly under pKd 3.1 to 4

Binder	pKd
B1	below the threshold
B2	3.91

These binders were tested against SCRIB_3, Q14160 (assay: holdup assay). Details: plain residues with an end cap or a label only (N-terminal biotin on a linker: ado-ado).
Chain of SCRIB_3, Q14160 (Q14160 999-1103): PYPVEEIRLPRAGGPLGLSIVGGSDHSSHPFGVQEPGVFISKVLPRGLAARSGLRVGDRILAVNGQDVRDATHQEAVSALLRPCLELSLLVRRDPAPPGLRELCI
Set-up: key: below the threshold = too weak to quantify, mostly under pKd 3.1 to 4

Binder	pKd
B1	3.73
B2	below the threshold

The binders below were run against DLG4_2, P78352 (assay: holdup assay). Details: plain residues with an end cap or a label only (N-terminal biotin on a linker: ado-ado).
Chain of DLG4_2, P78352 (P78352 155-259): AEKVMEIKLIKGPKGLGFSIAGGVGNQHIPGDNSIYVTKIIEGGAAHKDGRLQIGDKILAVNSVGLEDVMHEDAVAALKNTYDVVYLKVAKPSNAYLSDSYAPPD
Set-up: key: below the threshold = too weak to quantify, mostly under pKd 3.1 to 4

Binder	pKd
B1	below the threshold
B2	3.73

These binders were tested against T2, HTRA3, P83110 (assay: holdup assay). Details: plain residues with an end cap or a label only (N-terminal biotin on a linker: ado-ado).
T2 sequence (P83110 354-453, limits assumed, looked up): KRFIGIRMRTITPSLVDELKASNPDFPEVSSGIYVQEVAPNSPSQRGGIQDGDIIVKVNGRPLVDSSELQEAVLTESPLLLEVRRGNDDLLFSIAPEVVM
Set-up: key: below the threshold = too weak to quantify, mostly under pKd 3.1 to 4

Binder	pKd
B1	below the threshold
B2	4.83

These binders were tested against T3, PCLO, Q9Y6V0 (assay: holdup assay). Details: plain residues with an end cap or a label only (N-terminal biotin on a linker: ado-ado).
T3 sequence (Q9Y6V0 4491-4600, limits assumed, looked up): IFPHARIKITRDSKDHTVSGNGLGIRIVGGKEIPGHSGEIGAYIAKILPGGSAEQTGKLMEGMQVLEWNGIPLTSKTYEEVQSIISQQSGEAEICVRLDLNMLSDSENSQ
Set-up: key: below the threshold = too weak to quantify, mostly under pKd 3.1 to 4

Binder	pKd
B1	below the threshold
B2	below the threshold

Each binder was assayed against T4, DLG3_1, Q92796 (assay: holdup assay). Details: plain residues with an end cap or a label only (N-terminal biotin on a linker: ado-ado).
T4 sequence (Q92796 125-227, limits assumed, looked up): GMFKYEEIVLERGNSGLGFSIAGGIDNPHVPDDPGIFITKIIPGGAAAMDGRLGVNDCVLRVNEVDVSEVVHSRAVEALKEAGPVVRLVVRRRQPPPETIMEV
Set-up: key: below the threshold = too weak to quantify, mostly under pKd 3.1 to 4

Binder	pKd
B1	below the threshold
B2	below the threshold

The binders below were run against GOPC, Q9HD26 (assay: holdup assay). Details: plain residues with an end cap or a label only (N-terminal biotin on a linker: ado-ado).
Set-up: key: below the threshold = too weak to quantify, mostly under pKd 3.1 to 4

Binder	pKd
B1	3.94
B2	below the threshold

Each binder was assayed against GRIP2_4, Q9C0E4 (assay: holdup assay). Details: plain residues with an end cap or a label only (N-terminal biotin on a linker: ado-ado).
Chain of GRIP2_4, Q9C0E4 (Q9C0E4 446-548): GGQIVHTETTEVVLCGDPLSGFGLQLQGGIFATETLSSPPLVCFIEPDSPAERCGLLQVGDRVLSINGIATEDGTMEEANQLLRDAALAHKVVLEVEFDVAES
Set-up: key: below the threshold = too weak to quantify, mostly under pKd 3.1 to 4

Binder	pKd
B1	below the threshold
B2	below the threshold

What follows are binders tested against TJP1_3, Q07157 (assay: holdup assay). Details: plain residues with an end cap or a label only (N-terminal biotin on a linker: ado-ado).
Chain of TJP1_3, Q07157 (Q07157 416-512): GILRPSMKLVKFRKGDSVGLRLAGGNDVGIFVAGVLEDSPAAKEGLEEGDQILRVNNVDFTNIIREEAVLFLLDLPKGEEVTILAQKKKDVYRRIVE
Set-up: key: below the threshold = too weak to quantify, mostly under pKd 3.1 to 4

Binder	pKd
B1	below the threshold
B2	below the threshold

The binders below were run against T5, LIN7B, Q9HAP6 (assay: holdup assay). Details: plain residues with an end cap or a label only (N-terminal biotin on a linker: ado-ado).
T5 sequence (Q9HAP6 88-185, limits assumed, looked up): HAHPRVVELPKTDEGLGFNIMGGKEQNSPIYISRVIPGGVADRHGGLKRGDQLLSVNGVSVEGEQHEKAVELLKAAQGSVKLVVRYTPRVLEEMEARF
Set-up: key: below the threshold = too weak to quantify, mostly under pKd 3.1 to 4

Binder	pKd
B1	below the threshold
B2	3.63

What follows are binders tested against TJP2_1, Q9UDY2 (assay: holdup assay). Details: plain residues with an end cap or a label only (N-terminal biotin on a linker: ado-ado).
Chain of TJP2_1, Q9UDY2 (Q9UDY2 24-128): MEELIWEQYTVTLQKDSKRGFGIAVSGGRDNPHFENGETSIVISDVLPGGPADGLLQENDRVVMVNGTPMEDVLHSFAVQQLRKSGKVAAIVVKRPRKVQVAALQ
Set-up: key: below the threshold = too weak to quantify, mostly under pKd 3.1 to 4

Binder	pKd
B1	below the threshold
B2	4

The binders below were run against Inadl_6, Q8NI35 (assay: holdup assay). Details: plain residues with an end cap or a label only (N-terminal biotin on a linker: ado-ado).
Chain of Inadl_6, Q8NI35 (Q8NI35 1058-1167): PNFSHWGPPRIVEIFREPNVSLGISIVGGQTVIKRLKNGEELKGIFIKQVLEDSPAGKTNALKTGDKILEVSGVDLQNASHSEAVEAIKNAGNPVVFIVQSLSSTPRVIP
Set-up: key: below the threshold = too weak to quantify, mostly under pKd 3.1 to 4

Binder	pKd
B1	below the threshold
B2	below the threshold

What follows are binders tested against T6, SNTG1, Q9NSN8 (assay: holdup assay). Details: plain residues with an end cap or a label only (N-terminal biotin on a linker: ado-ado).
T6 sequence (Q9NSN8 52-150, limits assumed, looked up): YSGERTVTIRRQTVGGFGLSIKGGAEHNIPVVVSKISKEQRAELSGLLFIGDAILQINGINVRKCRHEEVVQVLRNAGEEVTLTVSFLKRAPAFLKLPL
Set-up: key: below the threshold = too weak to quantify, mostly under pKd 3.1 to 4

Binder	pKd
B1	below the threshold
B2	3.51

These binders were tested against HTRA2, O43464 (assay: holdup assay). Details: plain residues with an end cap or a label only (N-terminal biotin on a linker: ado-ado).
Chain of HTRA2, O43464 (O43464 355-458): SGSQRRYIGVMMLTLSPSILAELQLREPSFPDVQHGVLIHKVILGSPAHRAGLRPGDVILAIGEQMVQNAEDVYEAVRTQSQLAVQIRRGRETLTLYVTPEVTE
Set-up: key: below the threshold = too weak to quantify, mostly under pKd 3.1 to 4

Binder	pKd
B1	below the threshold
B2	4.2

The binders below were run against PDLIM1, O00151 (assay: holdup assay). Details: plain residues with an end cap or a label only (N-terminal biotin on a linker: ado-ado).
Chain of PDLIM1, O00151 (O00151 1-87): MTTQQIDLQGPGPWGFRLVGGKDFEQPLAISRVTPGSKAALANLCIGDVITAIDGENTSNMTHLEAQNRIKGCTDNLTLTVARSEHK
Set-up: key: below the threshold = too weak to quantify, mostly under pKd 3.1 to 4

Binder	pKd
B1	below the threshold
B2	below the threshold

These binders were tested against T7, TX1BP3, O14907 (assay: holdup assay). Details: plain residues with an end cap or a label only (N-terminal biotin on a linker: ado-ado).
T7 sequence (O14907 10-122, limits assumed, looked up): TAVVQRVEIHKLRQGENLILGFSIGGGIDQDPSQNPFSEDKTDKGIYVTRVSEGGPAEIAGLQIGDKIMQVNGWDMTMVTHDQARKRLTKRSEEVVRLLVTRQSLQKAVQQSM
Set-up: key: below the threshold = too weak to quantify, mostly under pKd 3.1 to 4

Binder	pKd
B1	below the threshold
B2	below the threshold

The binders below were run against FRMPD2_2, Q68DX3 (assay: holdup assay). Details: plain residues with an end cap or a label only (N-terminal biotin on a linker: ado-ado).
Chain of FRMPD2_2, Q68DX3 (Q68DX3 944-1038): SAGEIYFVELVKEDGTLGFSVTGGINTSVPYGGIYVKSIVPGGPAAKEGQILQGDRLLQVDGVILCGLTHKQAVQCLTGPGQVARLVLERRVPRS
Set-up: key: below the threshold = too weak to quantify, mostly under pKd 3.1 to 4

Binder	pKd
B1	below the threshold
B2	3.87

Each binder was assayed against DLG4_3, P78352 (assay: holdup assay). Details: plain residues with an end cap or a label only (N-terminal biotin on a linker: ado-ado).
Chain of DLG4_3, P78352 (P78352 306-403): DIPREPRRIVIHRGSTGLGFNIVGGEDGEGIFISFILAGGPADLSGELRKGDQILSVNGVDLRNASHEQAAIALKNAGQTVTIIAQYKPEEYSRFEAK
Set-up: key: below the threshold = too weak to quantify, mostly under pKd 3.1 to 4

Binder	pKd
B1	below the threshold
B2	below the threshold

These binders were tested against LAP2, Q96RT1 (assay: holdup assay). Details: plain residues with an end cap or a label only (N-terminal biotin on a linker: ado-ado).
Chain of LAP2, Q96RT1 (Q96RT1 other isoform, or with tags, fused parts or gaps): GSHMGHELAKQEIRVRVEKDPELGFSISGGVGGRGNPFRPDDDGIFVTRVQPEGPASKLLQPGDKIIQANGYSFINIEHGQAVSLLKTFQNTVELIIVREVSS
Set-up: key: below the threshold = too weak to quantify, mostly under pKd 3.1 to 4

Binder	pKd
B1	below the threshold
B2	below the threshold

Each binder was assayed against T8, RAPGEF6, Q8TEU7 (assay: holdup assay). Details: plain residues with an end cap or a label only (N-terminal biotin on a linker: ado-ado).
T8 sequence (Q8TEU7 525-625, limits assumed, looked up): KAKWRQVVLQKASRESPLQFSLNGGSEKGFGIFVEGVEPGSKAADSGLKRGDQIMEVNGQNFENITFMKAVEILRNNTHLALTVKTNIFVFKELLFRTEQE
Set-up: key: below the threshold = too weak to quantify, mostly under pKd 3.1 to 4

Binder	pKd
B1	below the threshold
B2	below the threshold

These binders were tested against T9, PDZD2_2, O15018 (assay: holdup assay). Details: plain residues with an end cap or a label only (N-terminal biotin on a linker: ado-ado).
T9 sequence (O15018 329-429, limits assumed, looked up): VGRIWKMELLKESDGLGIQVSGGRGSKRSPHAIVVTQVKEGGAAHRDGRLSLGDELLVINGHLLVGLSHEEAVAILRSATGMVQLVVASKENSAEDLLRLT
Set-up: key: below the threshold = too weak to quantify, mostly under pKd 3.1 to 4

Binder	pKd
B1	below the threshold
B2	5.02

The binders below were run against Inadl_9, Q8NI35 (assay: holdup assay). Details: plain residues with an end cap or a label only (N-terminal biotin on a linker: ado-ado).
Chain of Inadl_9, Q8NI35 (Q8NI35 1530-1615): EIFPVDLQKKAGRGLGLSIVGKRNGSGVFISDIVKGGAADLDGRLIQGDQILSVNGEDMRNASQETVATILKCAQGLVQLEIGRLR
Set-up: key: below the threshold = too weak to quantify, mostly under pKd 3.1 to 4

Binder	pKd
B1	below the threshold
B2	4.28

Each binder was assayed against MAGI2_3, Q86UL8 (assay: holdup assay). Details: plain residues with an end cap or a label only (N-terminal biotin on a linker: ado-ado).
Chain of MAGI2_3, Q86UL8 (Q86UL8 600-682): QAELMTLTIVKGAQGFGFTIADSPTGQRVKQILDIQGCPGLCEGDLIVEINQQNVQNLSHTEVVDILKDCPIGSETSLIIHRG
Set-up: key: below the threshold = too weak to quantify, mostly under pKd 3.1 to 4

Binder	pKd
B1	below the threshold
B2	below the threshold

Reference: article PMC9482650, “Quantitative fragmentomics allow affinity mapping of interactomes” (Nature Communications, 2022)
